Molecular target: full-length human VPS29 (human, UniProt Q9UBQ0 1-182)
Assay: ITC; TBC proteins (100∼200 μM) injected into retromer proteins (8–16 μM); 20 °C; 20 mM Tris pH 8, 200 mM NaCl, 5 mM βME; one set of sites model
Details: both partners purified

- binding result: binds
B1: TBC1d5 Ins1 peptide (peptide)
peptide: GQQDLMINNPLSQDEGSLWNKFFQDKE
notes: TBC1d5 residues 132–158 (Insertion 1 region); The limits are told for the crystallised peptide; source: expressed as MBP fusion, purified (Amylose resin, TEV cleavage, Ni-NTA, Superdex 75); not shown: His6, C-terminal, kept

Source: publication PMC5105194 (Nature Communications, 2016)
